Measurements as given in publication PMC9130954.

Experiments:
[1] = target: Photosystem I (PSI) complex from Anabaena sp. PCC 7120, the monomeric unit of the PSI oligomers (Anabaena sp. PCC 7120 (endogenous)) (UniProt P58576); assay: cryo-EM structure; PSI supercomplex 2 purified by BN-PAGE and re-extraction (buffer A with 0.03% digitonin), about 2.5 mg/ml, fos-choline-8 at 1.0 mM added before blotting; single-particle map at 7.0 Å overall, no symmetry (C1); published PSI dimer (PDB 6K61) and tetramer (PDB 6TCL) models fitted as rigid bodies
[2] = target: Photosystem I (PSI) complex from Anabaena sp. PCC 7120, the monomeric unit of the PSI oligomers (Anabaena sp. PCC 7120 (endogenous)) (UniProt P58576); assay: negative staining EM, single-particle 2D class averaging; purified supercomplex 1 sample, 0.19 mg/ml, 0.75% uranyl formate, 120 kV; 2,518 particles; PSI tetramer and dimer models rigidly fitted over the 2D map
[3] = target: Photosystem I (PSI) complex from Anabaena sp. PCC 7120, the monomeric unit of the PSI oligomers (Anabaena sp. PCC 7120 (endogenous)) (UniProt P58576); assay: negative staining EM, single-particle 2D class averaging; purified PSI tetramer sample, 0.15 mg/ml, 0.75% uranyl formate, 120 kV; 359 particles; PSI tetramer structure as reference
[4] = target: Photosystem I (PSI) complex from Anabaena sp. PCC 7120, the monomeric unit of the PSI oligomers (Anabaena sp. PCC 7120 (endogenous)) (UniProt P58576); assay: negative staining EM, single-particle 2D class averaging; purified supercomplex 2 sample, 0.27 mg/ml, 0.75% uranyl formate, 120 kV; 822 particles; PSI tetramer models rigidly fitted over the 2D map

Substance “Photosystem I (PSI) complex from Anabaena sp. PCC 7120, the monomeric unit of the PSI oligomers (from UniProt P58576 1-752; P58565 1-741; P58564 24-164; P58583 1-86; P58577 1-172; Q8YNB0 1-32)” has a stoichiometry N [1] of 8, a stoichiometry N [2] of 6 and a stoichiometry N [3] of 4. The stoichiometry N [4] was 8.
